This data set in a line: yeast display, Sf9 membrane polyspecificity reagent, FACS + sequencing; frameworks hold sequencing errors. In short, it runs like this: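 Nanobodies came from a synthetic yeast display library in Saccharomyces cerevisiae BJ5465, induced with galactose for 36–48 hours and stained for 1 hour at 4 °C with 10% biotinylated, detergent-solubilized Sf9 membrane reagent. Cells were enriched on streptavidin microbeads and then FACS-sorted, with low and high (top ~1%) gates set on anti-HA fluorescence for expression and streptavidin fluorescence for reagent binding. Each polyreactivity label reflects the gate a clone came from. Genes were amplified by colony PCR, sequenced by MiSeq 2 × 250 and filtered by CDR length.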
Turning to “QVQLVESGGGLVQAGGSLRLSCAASGRIFGVYAMGRYRQAPGKERELVAGINGGDSTYYADSVKGRFTISRDNAKNTVYLQMNSLKAEDTAVYYCAAEADESGSNYDYWGQGTQVTVSS”, the “polyreactivity (PSR sort gate)” value is “low polyreactivity”.

As to “QVQLVESGGGLVQAGGSLRLSCAASGRIFGVYAMGWYRQAPGKEREFVARISWHGGRTYYADSVKGRFTISRDNAKNTVYLQMNSLKPEDTAVYYCAADHGYPSRLDYWGQGTQVTVSS”, the “polyreactivity (PSR sort gate)” value is given as “high polyreactivity”.

“QVQLVESGGGLVQAGGSLRLSCAASGRIFGVYAMGWYRQAPGKERELVAAIDSSDASTYYADSVKGRFTISRDNAKNTVYLQMNSLKPEDTAVYYCAADNPAAVYGYDYWGQGTQVTVSS”: the “polyreactivity (PSR sort gate)” value was “low polyreactivity”.

Regarding “QVQLVESGGGLVQAGGSLRLSCAASGRIFGVYAMGWYRQAPGKERELVAAIDSSDGSTYYADSVKGRFTISRDNAKNTVYLQMNSLKPEDTAVYYCAADTPAAVYGYDYWGQGTQVTVSS”, the “polyreactivity (PSR sort gate)” value was “low polyreactivity”.

As for “QVQLVESGGGLVQAGGSLRLSCAASGRIFGVYAMGWYRQAPGKERELVAAISFSGGRTYYADSVKGRFTISRDNAKNTVYLQMNSLKPEDTAVYYCAVRGYYSFLYSTAYDYWGQGTQVTVSS”, the “polyreactivity (PSR sort gate)” value was “low polyreactivity”.

For the sequence “QVQLVESGGGLVQAGGSLRLSCAASGRIFGVYAMGWYRQAPGKERELVAAISTRGGSTYYADSVKGRFTISRDNAKNTVYLQMNSLKPEDTAVYYCAAKSNNIATMDYWGQGTQVTVSS”, the “polyreactivity (PSR sort gate)” value was “low polyreactivity”.

For the sequence “QVQLVESGGGLVQAGGSLRLSCAASGRIFGVYGMGWYRQAPGKERELVAAISWSGATTYYADSVKGRFTISRDNAKNTVYLQMNSLKPEDTEVYYCAADFGWFYDGLAVWFIRILGVYWGQGTQVTVSS”, the “polyreactivity (PSR sort gate)” value is recorded as “low polyreactivity”.

In the case of “QVQLVESGGGLVQAGGSLRLSCAASGRIFGVYVMGWYRQAPGKERELVAAISWSGSHTYYADSVKGRFTISRDNAKNTVYLQMNSLKPEDTAVYYCNADSYPDYTGPGLDWYDYWGQGTQVTVSS”, the “polyreactivity (PSR sort gate)” value is “low polyreactivity”.

On to “QVQLVESGGGLVQAGGSLRLSCAASGRIFGWYAMGWYRQAPGKERELVAAINWDGTSTDYADSVKGRFTISRDNAKNTVYLQMNSLKPEDTAVYYCAAEGHTAFLVYRVSPLQYDYWGQGTQVTVSS”, for which the “polyreactivity (PSR sort gate)” value is “low polyreactivity”.

“QVQLVESGGGLVQAGGSLRLSCAASGRIFGWYAMGWYRQAPGKERELVAAISGRGGSTFYADSVKGRFTISRDNEKNTVYLQMNSLKPEDTAVYYCNAYSWYGYDYWGQGTQVTVSS”: the “polyreactivity (PSR sort gate)” value was “high polyreactivity”.

Consider “QVQLVESGGGLVQAGGSLRLSCAASGRIFGWYAMGWYRQAPGKERELVAAISNDGSTNYADSVKGRFTISRDNAKNTVYLQMNSLKPEDTAVYYCAARFYRSSYGWYGYWGQGTQVTVSS”, for which the “polyreactivity (PSR sort gate)” value is “high polyreactivity”.

Turning to “QVQLVESGGGLVQAGGSLRLSCAASGRIFGWYAMGWYRQAPGNEREFVAAITVTGGSTYYADSVKGRCTISRDNAKNTVYLQMNSLKPEDTAVYYCAADRWYTRTGFDYWGQGTQVTVSS”, the “polyreactivity (PSR sort gate)” value is “low polyreactivity”.

As for “QVQLVESGGGLVQAGGSLRLSCAASGRIFGWYAMGWYRQAPGNERELVAAINRGGSTNYADSVKGRFTISRDNAKNTVYLQMNSLKPEDTAVYYCAVRGVHYTAVTNIKYGYGYWGQGTQVTVSS”, the “polyreactivity (PSR sort gate)” value was “high polyreactivity”.

Consider “QVQLVESGGGLVQAGGSLRLSCAASGRIFGYNAMGWYRQAPGKERELVAAINSDGSKNYADSVKGRFTISRDNAKNTVYLQMNSLKPEDTAVYYCNKELYPVGDYEYWGQGTQVTVSS”, for which the “polyreactivity (PSR sort gate)” value was “low polyreactivity”.

“QVQLVESGGGLVQAGGSLRLSCAASGRIFGYNAMGWYRQAPGKERELVAAISDDGSTNYADSVKGRFTISRDNAKNTVYLQMNSLKPEDTAVYYCNADITFYTWGWYYIRYEYWGQGTQVTVSS”: the “polyreactivity (PSR sort gate)” value was “low polyreactivity”.

On to “QVQLVESGGGLVQAGGSLRLSCAASGRIFGYNAMGWYRQAPGKERELVAAISGSGGSTYYADSVKGRFTISRDNAKNTVYLQMNSLKPEDTAVYYCATRHGRYPYTLDYWGQGTQVTVSS”, for which the “polyreactivity (PSR sort gate)” value is “low polyreactivity”.

(Values after the nanobody polyreactivity screen of Harvey et al. (2022).)
